The results in this text go back to patent publication US20150202223A1 (GENERAL HOSPITAL, published 2015).

This test deals with T1, STING-HA (Sting cDNA with a C-terminal HA tag, stably expressed in p53-/- MEFs) (mouse, UniProt Q3TBT3 1-378).
T1 construct: not shown: C-terminal HA tag added by PCR
T1 sequence (looked up): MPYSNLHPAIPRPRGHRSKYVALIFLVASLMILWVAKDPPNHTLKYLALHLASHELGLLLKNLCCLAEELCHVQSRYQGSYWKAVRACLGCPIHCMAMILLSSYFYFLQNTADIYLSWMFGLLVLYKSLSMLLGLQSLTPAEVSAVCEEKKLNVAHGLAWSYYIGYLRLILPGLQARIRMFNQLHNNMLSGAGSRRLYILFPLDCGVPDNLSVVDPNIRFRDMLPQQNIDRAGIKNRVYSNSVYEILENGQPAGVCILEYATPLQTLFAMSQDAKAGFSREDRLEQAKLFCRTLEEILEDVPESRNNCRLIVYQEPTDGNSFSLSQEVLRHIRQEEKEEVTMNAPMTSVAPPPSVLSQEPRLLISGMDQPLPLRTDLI
The test is described as follows: anti-HA immunoprecipitation of STING-HA from MEF lysate, SILAC mass spectrometry. As to the method:
Light (L) and heavy (H) isotope-labeled p53−/− MEFs mock infected (L) or stably expressing Sting-HA (H) were stimulated with 1000 U/mL IFNβ for 18 h. H cells were transfected with ISD for 2.5 h. Cells were lysed in 0.2% NP-40 buffer (above), and insoluble proteins were removed by centrifugation. 18 mg of each lysate was mixed with 1 ug/mL anti-HA antibody and Protein G beads (Pierce), and rotated for 2.5 h at 4° C. Beads were pelleted and washed extensively with wash buffer (above). The two samples were mixed, cysteines were reduced by DTT and alkylated with iodoacetamide, and proteins were eluted by heating in SDS sample buffer (Life Technologies) for 10 min before separation on a 4-12% gradient gel. The whole gel lane was cut into 8 slices, proteins were digested inside the gel with trypsin, and peptides were extracted from the gel as described4. Extracted peptides were purified with StageTips5 and analyzed with a 100 min acquisition method on a Thermo EASY-nLC 1000 UHPLC coupled to a Q Exactive mass spectrometer. […] All proteins were identified with at least 2 or more unique peptides and quantified with 3 or more ratios. […] To identify significant interactions, P-values were calculated via Gaussian modeling of the log(H/L) data, and proteins with P<0.05 were designated as candidates for siRNA screening.

B1: ANP32A (other, mouse, UniProt O35381 1-247, looked up)
chain: MEMDKRIYLELRNRTPSDVKELVLDNCKSIEGKIEGLTDEFEELEFLSTINVGLTSISNLPKLNKLKKLELSENRISGDLEVLAEKCPNLKHLNLSGNKIKDLSTIEPLKKLENLKSLDLFNCEVTNLNAYRENVFKLLPQVMYLDGYDRDNKEAPDSDVEGYVEDDDEEDEDEEEYDEYAQLVEDEEEEDEEEEGEEEDVSGEEEEDEEGYNDGEVDDEEDEEEAGEEEGSQKRKREPDDEGEEDD
notes: Endogenous protein co-precipitated from MEF lysates
On to B1, for which the binding result is listed as “no binding”.

B2: HMGB2 (other, mouse, UniProt P30681 1-210, looked up)
chain: MGKGDPNKPRGKMSSYAFFVQTCREEHKKKHPDSSVNFAEFSKKCSERWKTMSAKEKSKFEDLAKSDKARYDREMKNYVPPKGDKKGKKKDPNAPKRPPSAFFLFCSENRPKIKIEHPGLSIGDTAKKLGEMWSEQSAKDKQPYEQKAAKLKEKYEKDIAAYRAKGKSEAGKKGPGRPTGSKKKNEPEDEEEEEEEEEEEDDEEEEEDEE
notes: as for B1
Take B2: the binding result is given as “no binding”.
